Measurements from paper doi:10.1101/797027 (bioRxiv, 2019).

T1: hRpn10^305–377 (RAZUL, Rpn10 AZUL binding domain) (human, UniProt P55036 305-377)
T1 sequence (looked up): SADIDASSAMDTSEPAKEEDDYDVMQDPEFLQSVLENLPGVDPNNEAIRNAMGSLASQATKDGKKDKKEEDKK

T2: GST-hRpn10^305–377 (human, UniProt P55036 305-377)
T2 sequence (looked up): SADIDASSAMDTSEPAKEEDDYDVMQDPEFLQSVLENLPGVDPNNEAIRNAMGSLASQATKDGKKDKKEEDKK


How the values were obtained:
[1] = target: T1, hRpn10^305–377 (RAZUL, Rpn10 AZUL …); assay: ITC
GST-hRpn10^305–377 = target: T2, GST-hRpn10^305–377; assay: SPR
ubiquitin = ubiquitin (UniProt P0CG48 1-76); assay: NMR titration

Row | Kd [1] | Kd (GST-hRpn10^305–377) | binding result (ubiquitin) | Binder
1 | 11.6 nM | 8.1 nM | – | E6AP AZUL domain, E6AP[24–87] (domain or fragment, human, UniProt Q05086 24-87, looked up) MKRAAAKHLIERYYHQLTEGCGNEACTNEFCASCPTFLRMDNNAAAIKALELYKINAKLCDPHP
2 | – | – | binds | His-hRpn10^196–377 (domain or fragment) MLGLGASDFEFGVDPSADPELALALRVSMEEQRQRQEEEARRAAAASAAEAGIATTGTEDSDDALLKMTISQQEFGRTGLPDLSSMTEEEQIAYAMQMSLQGAEFGQAESADIDASSAMDTSEPAKEEDDYDVMQDPEFLQSVLENLPGVDPNNEAIRNAMGSLASQATKDGKKDKKEEDKK
